Reference: patent US20240002482A1 (BEIJING SOLOBIO GENETECHNOLOGY, published 2024)

biological target: T1, PcrV protein (Pseudomonas aeruginosa type III secretion system protein) (Pseudomonas aeruginosa); assay: ELISA on plate-coated synthetic PcrV, detection with goat anti-human Fc-AP and pNPP, OD410
T1 construct: The ELISA used 'synthetic PcrV' as plate coat; Biacore and BLI used 'PcrV protein' in solution; also called synthetic PcrV; Full-length PcrV
Method: STS7B15925, STS7B1H9 and STS7B112 were further optimized by introducing variants in the VH, VL, and/or Fc, giving rise to STS7B15925M, STS7B15921M, STS7B1H9M, STS7B1H924M, STS7B112M, and STS7B11201M. For the ELISA experiment, synthetic PcrV or PAO1 was used to coat the wells of a 96-well plate. On the following day, after washing with PBST, blocking with 200 μL PBS-milk for an hour, and another wash with PBST, the respective antibodies were added and incubated for an hour at 37° C. The plate was washed with 0.1% TBST 6 times before 100 μL of Goat-anti-human Fc antibody-AP (1:3000 in PBS) was added to each well and incubated for an hour. After washing with 0.1% TBST for 6 times, 50 μL of pNPP (p-nitrophenyl phosphate) was added to each well and color was developed for […] at 37 C. Subsequently, the colorimetric signals were read by a microplate reader at 410 nm. The ELISA results (OD410) were analyzed and the EC50 values were calculated.

Binder	binding result
anti-PcrV/anti-Psl bispecific antibody STS7B15925M (bispecific antibody, Chimeric heavy chain: VH-CH1-linker-scFv(anti-Psl)-linker-CH2-CH3; The Fab is from 7B1 (anti-PcrV); Optimized variant of STS7B15925) heavy: not shown light: DIQLTQSPSSLSASVGDRVTITCRASQGISSYLAWYQQKPGKAPKLLIYAASTLQSGVPSRFSGSGSGTDFTLTISSLQPEDFATYYCQQLSSYPLTFGGGTKVEIKRTVAAPSVFIFPPSDEQLKSGTASVVCLLNNFYPREAKVQWKVDNALQSGNSQESVTEQDSKDSTYSLSSTLTLSKADYEKHKVYACEVTHQGLSSPVTKSFNRGEC	binds
anti-PcrV/anti-Psl bispecific antibody STS7B112M (bispecific antibody, Chimeric heavy chain: 7B1 VH-CH1-linker-scFv(anti-Psl 3F12)-linker-CH2-CH3) heavy: not shown light: DIQLTQSPSSLSASVGDRVTITCRASQGISSYLAWYQQKPGKAPKLLIYAASTLQSGVPSRFSGSGSGTDFTLTISSLQPEDFATYYCQQLSSYPLTFGGGTKVEIKRTVAAPSVFIFPPSDEQLKSGTASVVCLLNNFYPREAKVQWKVDNALQSGNSQESVTEQDSKDSTYSLSSTLTLSKADYEKHKVYACEVTHQGLSSPVTKSFNRGEC	binds
anti-PcrV/anti-Psl bispecific antibody STS7B1H924M (bispecific antibody, Chimeric heavy chain: 7B1 VH-CH1-linker-scFv(anti-Psl 7H924)-linker-CH2-CH3) heavy: EVQLLESGGGLVQPGGSLRLSCTASGFTFSDNYMSWVRQAPGKGLDWVSVISESGGSTNYADSVKGRFSTSRDNSKSTLYLDMNSLRAEDTAIYYCAKGRFSTLSSHFFRAVYGMDVWGQGTAVTVSSASTKGPSVFPLAPSSKSTSGGTAALGCLVKDYFPEPVTVSWNSGALTSGVHTFPAVLQSSGLYSLSSVVTVPSSSLGTQTYICNVNHKPSNTKVDKKVEPKSCGKTGGGGSGGGGSQVQLVQSGAEVKKPGASVKVSCKASGDTSTIHSVHWVRQAPGQCLEWMGTIISSGTTTTYAQSFQDRVSMTIDRSTSTGYMELSSLRFEDTAVYYCTTDGTSWGQGTLVTVSSGGGGSGGGGSGGGGSGGGGSDIQLTQSPSSVSASVGDRVTIACRASQGISSWLAWYQQKPGKAPKLLIYHASTLESGVPSRFSGSGSGTDFTLTISSLQPEDFATYYCLQASSLPHTFGCGTKLEIKGGGGSGGGGSCPPCPAPELLGGPSVFLFPPKPKDTLYITREPEVTCVVVDVSHEDPEVKFNWYVDGVEVHNAKTKPREEQYNSTYRVVSVLTVLHQDWLNGKEYKCKVSNKALPAPIEKTISKAKGQPREPQVYTLPPSREEMTKNQVSLTCLVKGFYPSDIAVEWESNGQPENNYKTTPPVLDSDGSFFLYSKLTVDKSRWQQGNVFSCSVMHEALHNHYTQKSLSLSPGK light: DIQLTQSPSSLSASVGDRVTITCRASQGISSYLAWYQQKPGKAPKLLIYAASTLQSGVPSRFSGSGSGTDFTLTISSLQPEDFATYYCQQLSSYPLTFGGGTKVEIKRTVAAPSVFIFPPSDEQLKSGTASVVCLLNNFYPREAKVQWKVDNALQSGNSQESVTEQDSKDSTYSLSSTLTLSKADYEKHKVYACEVTHQGLSSPVTKSFNRGEC	binds
anti-PcrV/anti-Psl bispecific antibody STS7B11201M (bispecific antibody) heavy: not shown light: DIQLTQSPSSLSASVGDRVTITCRASQGISSYLAWYQQKPGKAPKLLIYAASTLQSGVPSRFSGSGSGTDFTLTISSLQPEDFATYYCQQLSSYPLTFGGGTKVEIKRTVAAPSVFIFPPSDEQLKSGTASVVCLLNNFYPREAKVQWKVDNALQSGNSQESVTEQDSKDSTYSLSSTLTLSKADYEKHKVYACEVTHQGLSSPVTKSFNRGEC	binds
anti-PcrV/anti-Psl bispecific antibody STS7B15921M (bispecific antibody, Chimeric heavy chain: 7B1 VH-CH1-linker-scFv(anti-Psl P5921)-linker-CH2-CH3) heavy: not shown light: DIQLTQSPSSLSASVGDRVTITCRASQGISSYLAWYQQKPGKAPKLLIYAASTLQSGVPSRFSGSGSGTDFTLTISSLQPEDFATYYCQQLSSYPLTFGGGTKVEIKRTVAAPSVFIFPPSDEQLKSGTASVVCLLNNFYPREAKVQWKVDNALQSGNSQESVTEQDSKDSTYSLSSTLTLSKADYEKHKVYACEVTHQGLSSPVTKSFNRGEC	binds

biological target: T1, PcrV protein (Pseudomonas aeruginosa …); assay: SPR (BIACORE T200), 25 C; antibody captured on CM5 chip, serial dilutions of PcrV protein injected
Method: Binding affinity (Kd) of selected bispecific antibodies with respect to PcrV at 25° C. was determined using a real-time biosensor surface plasmon resonance assay (BIACORE™ T200). Briefly, the antibody was first captured on a CM5 chip to form an antibody surface. Serial dilutions of PcrV protein were injected over the antibody surface. Binding of antigen to antibody and dissociation of the bound complex were monitored in real time. Equilibrium dissociation constants (Kd) and dissociation rate constants were ascertained by performing kinetic analysis using BIA evaluation software.

Binder	Kd [nM]	koff [s⁻¹]	kon [M⁻¹ s⁻¹]
anti-PcrV/anti-Psl bispecific antibody STS7B11201S (bispecific antibody, also called STS7B112015) heavy: not shown light: DIQLTQSPSSLSASVGDRVTITCRASQGISSYLAWYQQKPGKAPKLLIYAASTLQSGVPSRFSGSGSGTDFTLTISSLQPEDFATYYCQQLSSYPLTFGGGTKVEIKRTVAAPSVFIFPPSDEQLKSGTASVVCLLNNFYPREAKVQWKVDNALQSGNSQESVTEQDSKDSTYSLSSTLTLSKADYEKHKVYACEVTHQGLSSPVTKSFNRGEC	0.265	4.52e-05	170000
anti-PcrV/anti-Psl bispecific antibody STS7B159S (bispecific antibody, also called STS7B1595) heavy: not shown light: DIQLTQSPSSLSASVGDRVTITCRASQGISSYLAWYQQKPGKAPKLLIYAASTLQSGVPSRFSGSGSGTDFTLTISSLQPEDFATYYCQQLSSYPLTFGGGTKVEIKRTVAAPSVFIFPPSDEQLKSGTASVVCLLNNFYPREAKVQWKVDNALQSGNSQESVTEQDSKDSTYSLSSTLTLSKADYEKHKVYACEVTHQGLSSPVTKSFNRGEC	0.179	3.13e-05	174000
anti-PcrV antibody 7B1 (antibody, V domains shown, Monospecific antibody, optimized from the 13-42 lead) VH: EVQLLESGGGLVQPGGSLRLSCTASGFTFSDNYMSWVRQAPGKGLDWVSVISESGGSTNYADSVKGRFSTSRDNSKSTLYLDMNSLRAEDTAIYYCAKGRFSTLSSHFFRAVYGMDVWGQGTAVTVSS VL: DIQLTQSPSSLSASVGDRVTITCRASQGISSYLAWYQQKPGKAPKLLIYAASTLQSGVPSRFSGSGSGTDFTLTISSLQPEDFATYYCQQLSSYPLTFGGGTKVEIK	0.335	4.82e-05	144000
